Source: a protein production outcome set (Wang et al. 2014)

Assay: label from the status in PepcDB records
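Further: failed if final PepcDB status was selected cloned or expressed and not failed if soluble or beyond.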

With “MNNRELGRWQEHKHIGDYGWGIILCVIILCCIGMWAVYYACLHDLKVIDPVRTTMMQCLWYLVGALIATTMLHLSEKQLMQWAPIGYSIGMLLLILLLVLYSREYYVQTGAKSWFAIGTLTFQPVEVMKPLYILMMGRLIVQDQQWGPHNNFNADWRLTRRLVIYTFPIIVALKIINDFGTTLVFLTIFIGMLIVSPCRFSFLWRVLLVAGSIGVVLILLATSSTGQSLLSHIGFKLYQFDRINTWLNPSNGVSDQSYQLWQSMRAVGVGGLTGNGVTHNAVYVPVRESDMIFSVVGETTGFIGCSVLLIVYMYLFYLIFRSAFASRRRFYVYVSTGVAVMLAFHMFENIGMTIGLLPLTGIPLPFVSQGGSAIIGDFMGVGLVLATQYPNVRSIFSVPRIFH” the protein production was “failed”.

With “MRRSAYMTDTKICKKGCDHDTSHRENEQRCGRGSFWMHDPDLIFSELKLKAGEFFLDMGCGPGDYSIWASKIVGNSGMVYALDKWQELIDNLTEKADLEGIKNIKGMVSDIARPLPIEESCIDVYFISTVLHSLDLAKDSDVIFSEIHRVLKPDGRLAIVECKKEEMSFGPPLHMRLSPEELENLIAKYGFEKINLVDLGYNYMIQFRKSYQK” the protein production was “failed”.

With “MSLRGELRVGLEPGYLPFEMKDKKGNVIGFDVDLAREMAKAMGVKLKLVPTSWDGLIPGLVTEKFDIIISGMTISQERNLRVNFVEPYIVVGQSLLVKKGLEKGVKSYKDLDKPELTLVTKFGVSAEYAAKRLFKNAKLKTYDTEAEAVQEVLNGKADMFIFDLPFNVAFMAQKGQGYLVHLDTSLTYEPLGWAIKKGDPDFLNWLNHFLAQIKHDGSYDELYERWFVDTKWLEKIQEGHHHHHH” the protein production was “not failed”.

With “MTLVDDRLLESKMTKVEQARAWSPRVISKFETLIKSADDHSLYRVNPLAFARDRAIAEAEAIDLFLHAARCGLFDMSWDVLCPQSGMVLDSFGALRTLKTHYVCGLCDVSGDTDLDDFIEVTFSVSPKLRRLPYHDPETLPVEDFHWKLHFGHDGRLPGQDVRFLDVLRGFVRGMTFLPPGTTTVLRADLGPGALSGVNVQTQAAFAVPISGDRGLAPTLLKIDYDGKRFLPAMPAVPPGPIVIEVANRGPVRGSLLVINWPPELVALTTKPTLDFDPYVSGGALLARQTFRQLFRSERVDEKEGLGIRQITFLFTDLKGSTAMYERLGDLNAYALVREHFALVNAAVQQHSGAVVKTIGDAVMAVFSQPSDAISAALHVFEEIDRFNGDHDGPGIILKIGAHCGPSIAVTLNDNLDYFGQTVNVAARVQSLAEAGQICISEALYSAPGVREMLAGHRVVAFDAPLRGVQGDATVYRIMRE” the protein production was “failed”.

In the case of “MGKMRTPQEVPARLDALAEAARKLKFDVREPVDAGAGAIGAVHSLDYLRFLREAHARWKQLPDDWGDEVVSNVFVREPNALRGVLAQAARYLADGSCPVGPHTWQSAYWAAQCAISGAQTLLDGERHAYALCRPPGHHARRDAAGGFCYLNNAAIAAQMLTQRYKRVAILDTDMHHGQGIQEIFYERSDVLYVSIHGDPENFYPVVAGFENERGAGEGYGYNVNLPMPHGSPEPVFFDRLQQAQRAIELFQPDALVLSLGFDVFEKDPQAMVAVSANGFERLGQAIGAFKLPTLIVQEGGYYIEGLEDNAERFFAGLAKALEHHHHHH”, the protein production was “failed”.

In the case of “MLDATTRSGGTATATPRATATDLTVATAAAAAGVTAPGAAVAVPTGFTARCTRVLLSPWSRLSLLVALLAAAASSVLLFEPQKLLAHGWPPQLGGAAAAVVFAVAYGLCTVAFVPRPLLNLAAGALFGSQWGTGTALAGTVLGAGVAFGLGRMLGQDALRPLLRGRWLKAVDGQLSRHAFRSMMAARLFPGVPFWAANYCAAVSRMRWVPFLVATALGSIPNTAAYAVAGARASRPTSPAFLIAMGFIAVPALVGAVVAWRKRHHLRGN”, the protein production was “failed”.

With “MGFSFLLATVQKERMKRRSRTRSRSRRRAKQDPKTWVARYIPQDLLIEILTRLPPKSVMRFKCVSKFWSSLLSSRYFCNRFLIVPSQPQPSLYMCLLDRYNYSKSLILSSAPSTSPYSFVFDQDLTIRKMGGFFLRILRGFIFFTRNLKARIYNPTTRQLVILPTIKESDIIAGPPYNILYFICHDPVNDRYKLLCTVSYASDNDLQNLKSELWIFVLEAGGSWKRVANEFPHHVPSHLDLNMNGVLYFLAWTDPHTCMLVSFDVRSEEFNTMQVPRNAGDTLPRQEKGVVNRVW” the protein production was “failed”.

In the case of “MEYKLTPSYLLKENMVLACGNILFADDGFSVHVIEKLQELLTEEEKENIALVDAGAGAPQQVLTLIDSEAKTKKIIVVDIIDYGLEPGEIKILTMDDLPKPEHTKVDSHDWPLSTTMYRVFRDAPHEIDFKVVGCQKKYVSEPDVVIELSEEVQNAVDVAVDIVLSELRGKPIN”, the protein production was “not failed”.

In the case of “MQPILWILTLGISLNGVTSVTFLKQFNTSFLDFEIVGVPIIFALTIPLFGSFSSRLEFSNSTIYVVHLLSNRKIIYYFMGTDVIFYAIITFVNVLTVAGLSFILTSEGVNVIGLLAVLPLMLLGSLTSYSLGIIINSLFRNLSSPTSYLFSLIQVILILFSGVYYPLSYLPEYLRIIAFISPYSHLIALIRYILLGYNASDLNALWFYTLPYQVQVVLSISYVIVLGVILFILAGKRLVKGQGMVLL”, the protein production was “failed”.

For “ATEATNATNNQSTQVSQATSQPINFQVQKDGSSEKSHMDDYMQHPGKVIKQNNKYYFQTVLNNASFWKEYKFYNANNQELATTVVNDNKKADTRTINVAVEPGYKSLTTKVHIVVPQINYNHRYTTHLEFEKAIPTLADAAK”, the protein production was “not failed”.

With “MQTEIITQLVLIFPEILIALGGITLLLFGVYSKASSSLTVTGLAIALFVATIVIIIIFPKSGLFQTNALIIDSFGRYMKILTLIGALFALIMSVNFTSTQKFDIFEFPVLVLLATLGMMLMISAGNMLSLYMGLELQSLALYVLAAINRNNIKSSEAGIKYFALGALSSGLLLYGISLVYGFTGQIGFREIAVALKGENLPLGVIFGIVFILAGLAFKISAVPFHMWTPDVYEGAPTPITAFFAGAPKVAAMALIVRIIVMTFIPLENTDGSMPAWQQILVFMAIASMILGAFAAIGQSNIKRLMAYSSISHMGYALVGLASGDMLGIKSVILYMTIYLSMTIGSFAFILGMRSSDGNVEDIYDLSGLVKTNPFMAITMTIQLFSLASIPPMAGFFGKWYTFSAAVHAGLTPLAIVGMIASVVGAFYYLRLIKIMWFDDAKAHFIVLSNEFRFCLSFSAFFILSYTLFGIWFADLAERAATALF” the protein production was “failed”.

In the case of “EHFNDMIEKRVKSEIRNQVDLKKPMVRISVAISGGKDSSVTLYLLHKILSKRRNVELTAFTVDEGISGYRPAGLESAIKLTKMLGVDHSIIRFQDSFGMTLDSIVGADASRIPCSYCGPLRRKLINEMAERQNADYVALGLNLDDYSQSILMNVAKGDYDRLLRMSPQKEAKDGLVRRIAPLRSVLEKEVVLYAVINGIPFDSSWC”, the protein production was “failed”.

With “MLFEQIAANKRKTVFIILGFFIFVLMVGAAIGIIVWNNYLNGLILAAAIGAVYILIMVMSSSSVVMAMNHAKEVTSKEQAPVLWDTVESMAMVAGIPMPKVYIVEDPSPNAFATGISPEKGAVAVTRGLLNKLERYELEGVIAHEISHIRNYDIRLSTIAIALVAVIAILSDLAMRLIFWGSLTGGRNSRKSDNNNGGGAQIIIYVVALIFVILAPIIATAIQFALSRNREYLADASAVELTRNPDGLIQALQKISGDTKKMEEVSASSESIYFSSPLKSKKDKPGLFDSHPPISSRIERLENM” the protein production was “failed”.

For “MTPVQLKNYLEQLVGNQIKTSTMIWGPPGIGKSSIVAQIAEEGKLRFIDLRLSQLAPTDLRGLPVAIPTSKTKPQTGTSAWYPPEFLPKDGAGILFLDELNMAPPAMQGVAQQLILDRRVGSYEVPTDWFIWAAGNRKEDRASVFEMPAPLANRFLHLDVQPDFESFKQYALEQKYHEQVIAFLSFRPGLIHKLDLQRPAWPSPRSWAIANGLHQVNLDVSPAVGEGCAAEFSAFVQLYKDLPDLEAIFRGQGQNIGFPTEPSSGYASTIGLAVRAKDATAGVNAFHWLTDKADSEWVQLFVTDMAGQLRRAGHLGALSIMAKKEPKLKQFMQGYQELLAILEHHHHHH”, the protein production was “not failed”.

For “LVEDFERELGRMLSPFELEDLQKTVSDDKTDPDLVRSALREAVFNGKTNWNYIQAILRNWRHEGISTLRQVEE”, the protein production was “not failed”.

With “MSQAIPSSRVGVKINEWYKMIRQFSVPDAEILKAEVEQDIQQMEEDQDLLIYYSLMCFRHQLMLDYLEPGKTYGNRPTVTELLETIETPQKKLTGLLKYYSLFFRGMYEFDQKEYVEAIGYYREAEKELPFVSDDIEKAEFHFKVAEAYYHMKQTHVSMYHILQALDIYQNHPLYSIRTIQSLFVIAGNYDDFKHYDKALPHLEAALELAMDIQNDRFIAISLLNIANSYDRSGDDQMAVEHFQKAAKVSREKVPDLLPKVLFGLSWTLCKAGQTQKAFQFIEEGLDHITARSHKFYKELFLFLQAVYKETVDERKIHDLLSYFEKKNLHAYIEACARSAAAVFESSCHFEQAAAFYRKVLKAQEDILKGRVFICLLRKKVMMCLAVTLVFGSMSFPTLTNSGGFKESTDRNTTYIDHSPYKLSDQKKALS” the protein production was “failed”.

For “MRRVTVPTAPPAYADIGYPMSMLPIKSSRAVSGIQQKQEVLPGMDTPSNSMRPVADDNIDHTSHTPNGVASAFILEATVNVISGPKVLMKQIPIWLPLGIADQKTYSFDSTTAAIMLASYTITHFGKANNPLVRVNRLGQGIPDHPLRLLRMGNQAFLQEFVLPPVQLPQYFTFDLTALKLVTQPLPAATWTDETPSNLSGALRPGLSFHPKLRPVLLPGKTGKKGHVSDLTAPDKIQTIVNLMQDFKIVPIDPAKSIIGIEVPELLVHKLTGKKMSQKNGQPIIPVLLPKYIGLDPISPGDLTMVITPDYDDCHSPASCSYLSEK”, the protein production was “not failed”.

In the case of “MKISIICPLYNAENYIMSLHNKILEQEKPEGTEVEVSYVLTRCKDKTEEMLKNMNLQYTLIEPKDFSHSKTREMMAFKSTGDIIVFISQDVMMKNNFWLKNLVQPIIDGECEASFSRQLCTNNTIEKYIREKNYPEESRVVSKKDINKYGLLTFFYSDASSAVKTSVYKELNGYDNKRLLINEDMYFAEKLIQAGYRIKYCSDSEVYHSHVFTLKSLYERYFDTGVFFRQNSQFLNYKGNKSGKDLAIHVLKRSLEDKNFKVTLNILPNFGARFIGSFLGKKYESLPRSFVMASSMSKKVYSQILEHHHHHH”, the protein production was “not failed”.

In the case of “QLGGDMKTIAIADRTGEYEQLFKENDEFRFVHAEKTAEEYRKMGADKSGIDAVLEIRQDLLEDPNAVAIYGYKQLPASVSNHISRILSDYLSDKKIASYNIPDIKQILADSKIELSVHTYKWSEDGTNERTSGELASGIS”, the protein production was “not failed”.

In the case of “MMDCDHLLRLGMTAKKILENGKGILAADETPKTLGRRFEKLGITNTEENRRKFREILFSTKGIERYIGGVILNQETFEQTSGSGVPLTELLKKKGIEIGIKLDKGLIDYKEKEKISVGLEDLDLRCKSSAFKDATFAKWRSLFYFYDGIPSEDCINENCSILAKYAIICQKNGLVPIVEPEVFLEGDYSMKRSYEVTRQILSTLMKYLNYELVYIPGVLIKASYVTSGQLSNEKYTPKKVATFTLRALLSTIPCGIPGIVFLSGGHGSEDAIGFLNAINMERGCRTWSLSFSFARALTDGVLETWRGDDSNIEEAQKILLETSFKACRGAEGKLWDQE”, the protein production was “not failed”.

For “MKVKIYTRNGCPYCVWAKQWFEENNIAFDETIIDDYAQRSKFYDEMNQSGKVIFPISTVPQIFIDDEHIGGFTELKANADKILNKK”, the protein production was “not failed”.

For “MIDVLVQLKSEELILKQRVITAVVALIIFIPIVFLGGTLIEIAALALAVVAMSEVLIMKRILLVTPEAIISILGTLFLVAPKSWMHDLPSQINTPFVSLIFAIALMVRVVFSKNRFNFDDAGVLTLTMLYIGFGFNMFVQARTVGLGMLMYLLLTVWSTDSGAYLVGRKIGKTKLAPQISPNKTWEGSIGGTIVAVIVGIIFSVTGLIHYGILATILMTLFLSIAGQLGDLVESSLKRYYGVKDSGRILPGHGGILDRFDSLLLVLPMAYLLGLL”, the protein production was “failed”.
